Results: US20210196795A1 (LAURANTIS PHARMA, published 2021)

T1: uncleaved full-length VEGF-C (58 kDa precursor) (Homo sapiens (Human), UniProt P49767 32-419)
T1 construct: Made by transfected 293T cells from the mammalian VEGF-C construct of Joukov et al 1997; also called VEGF-C precursor; prepro-VEGF-C
T1 sequence: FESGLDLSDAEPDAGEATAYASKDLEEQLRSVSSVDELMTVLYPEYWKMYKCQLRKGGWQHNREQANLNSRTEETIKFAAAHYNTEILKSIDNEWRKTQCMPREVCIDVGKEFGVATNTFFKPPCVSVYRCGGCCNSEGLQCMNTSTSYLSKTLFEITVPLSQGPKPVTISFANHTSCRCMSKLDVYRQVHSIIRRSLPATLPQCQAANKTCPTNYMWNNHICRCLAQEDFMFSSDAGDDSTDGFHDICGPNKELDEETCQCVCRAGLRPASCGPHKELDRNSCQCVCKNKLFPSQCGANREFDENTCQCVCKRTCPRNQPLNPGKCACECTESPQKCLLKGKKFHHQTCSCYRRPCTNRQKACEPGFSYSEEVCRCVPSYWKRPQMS


Columns and labels:
[1] = target: human CCBE1 fused to a V5 tag (human) (UniProt Q6UXH8); test: cell-based or functional assay
[2] = target: T1, uncleaved full-length VEGF-C (58 kDa …); test: Strep-Tactin pull-down of mixed 293T conditioned media (CCBE1-strepIII and full-length VEGF-C, 10 min at RT), Western blot with anti-CCBE1 antibody and anti-VEGF-C antiserum
Description: Co-immunoprecipitation analysis of strep-tagged CCBE1. […] Mixed media were incubated for 10 min at RT before being applied to the pull-down.

Row | inhibition of VEGF-C processing [1] [%] | binding result [2] | Molecule
1 | 79 | – | VEGF-C C-terminal propeptide, hexahistidine-tagged (from UniProt P49767 228-419)
2 | 43 | – | VEGF-C N-terminal propeptide, hexahistidine-tagged (from UniProt P49767 32-111)
3 | – | no binding | CCBE1-strepIII (human CCBE1 with StrepIII-tag) (other, Secreted into 293T conditioned medium; also called strep-tagged CCBE1; not shown: StrepIII-tag (Junttila et al 2005) inserted immediately after the CCBE1 CDS) YREEPEDGDREICSESKIATTKYPCLKSSGELTTCYRKKCCKGYKFVLGQCIPEDYDVCAEAPCEQQCTDNFGRVLCTCYPGYRYDRERHRKREKPYCLDIDECASSNGTLCAHICINTLGSYRCECREGYIREDDGKTCTRGDKYPNDTGHEKSENMVKAGTCCATCKEFYQMKQTVLQLKQKIALLPNNAADLGKYITGDKVLASNTYLPGPPGLPGGQGPPGSPGPKGSPGFPGMPGPPGQPGPRGSMGPMGPSPDLSHIKQGRRGPVGPPGAPGRDGSKGERGAPGPRGSPGPPGSFDFLLLMLADIRNDITELQEKVFGHRTHSSAEEFPLPQEFPSYPEAMDLGSGDDHPRRTETRDLRAPRDFYP
